Results: US11407825B2, “NaPi2b-targeted polymer antibody-drug conjugates and methods of use thereof” (Mersana Therapeutics, Inc., priority 2018, dated 2022)

Experiment: Phase 1b dose escalation study of XMT-1536: safety and tolerability (adverse events, DLT)
Format: in vivo, human
Description: The study presented herein is an open label, multi-center Phase 1b study of XMT-1536 administered as an intravenous infusion once every three or four weeks. The dose escalation (DES) part of the study will establish the maximum tolerated dose (MTD) or recommended Phase 2 dose (RP2D) for XMT-1536 in patients with a number of tumor types likely to express NaPi2b, with a focus on patients with platinum-resistant ovarian cancer and non-squamous non-small cell lung cancer (NSCLC). […] The RP2D may differ from the MTD and may take into account tolerability, pharmacokinetic and pharmacodynamic measures, and efficacy of XMT-1536 based on RECIST 1.1. After the first cycle, patients may continue to receive XMT-1536 until disease progression provided the drug is well-tolerated and patients continue to derive clinical benefit in the opinion of the Investigator. The DES segment of the study utilized an accelerated titration design. The first 3-week cycle of treatment constitutes the dose limiting toxicity (DLT) evaluation period. For the first two dose levels, a minimum of 1 patient was treated at each dose level. If this patient experiences a treatment-emergent adverse event of Grade 2 or higher, 2 additional patients will be added at this dose level, and the study will subsequently follow a 3+3 design, as described below. […] Starting with Dose Level 3, the study will follow a standard 3+3 design, with 3 patients enrolled initially at each dose level. […] However, in the event of 1 DLT, 3 additional patients will be enrolled at the same dose level. Any dose level with 2 or more DLTs will be considered to exceed the MTD and subsequent patients will be enrolled at lower dose level(s). After the first cycle, patients may continue to receive XMT-1536 until disease progression if the drug is well-tolerated and patients continue to derive clinical benefit in the opinion of the Investigator.
After an August 2018 protocol amendment, each cycle will be 4-week (28 day) dose cycle. The first two, 4-week cycles of treatment (56 days) constitutes the dose limiting toxicity (DLT) evaluation period. Beginning with this amendment, up to 10 patients will be enrolled for evaluation at 20.0 mg/m^2 under the new 4-week cycle dose regimen. If that dose is cleared by the SRC, subsequent dose groups will follow a modified 3+3 design. Three patients will be enrolled initially and if toxicity issues arise, the SRC will review all pertinent data and may decide to add more patients to fully evaluate a dose in question and/or lower the dose. […] The observation period for DLTs is 56 days, between Day 1 through the end of Cycle 2 which includes the pre-dose assessments before receiving the Cycle 3 dose. A maximum of ten patients will be enrolled per dose level prior to the SRM. that will be conducted no later than 5 days after at least the sixth patient dosed in each level has completed Cycle 2, Day 28 evaluations. The data available for the patients dosed in all prior will be factored into the data review for each applicable dose escalation SRM. Any dose level with 2 or more DLTs occurring in 6 or fewer treated patients will be considered to exceed the MTD and subsequent patients will be enrolled at lower dose level(s). After the second cycle, patients may continue to receive XMT-1536 until disease progression if the drug is well-tolerated and patients continue to derive clinical benefit in the opinion of the Investigator. After completion of DES, the EXP segment of the study will be opened.
All adverse events will be graded according to the National Cancer Institute (NCI) Common Terminology Criteria version (CTCAE v4.03). The observation period for DLTs is 56 days, between Day 1 through end of Cycle 2 which includes the pre-dose assessments before receiving the Cycle 3 dose. […]

B1: XMT-1536: about 10-15 molecules of auristatin F-hydroxypropyl amide conjugated to a cysteine moiety of NaPi2b monoclonal antibody XMT-1535 via a PHF scaffold (conjugate, chains of the INN, looked up)
VH: QVQLVQSGAEVVKPGASVKMSCKASGYTFTGYNIHWVKQAPGQGLEWIGAIYPGNGDTSYKQKFRGRATLTADTSTSTVYMELSSLRSEDSAVYYCARGETARATFAYWGQGTLVTVSS
VL: DIQMTQSPSSLSASVGDRVTITCSASQDIGNFLNWYQQKPGKTVKVLIYYTSSLYSGVPSRFSGSGSGTDYTLTISSLQPEDFATYYCQQYSKLPLTFGQGTKLELK
modifications: auristatin F-hydroxypropyl amide via PHF scaffold
notes: about 10-15 molecules of auristatin F-hydroxypropyl amide conjugated to a cysteine moiety of NaPi2b monoclonal antibody XMT-1535 via a PHF scaffold
- number of DLT (30 mg/m^2, 28-day cycle, as of August 2019): One
- number of DLT (30 mg/m^2, 28-day cycle, as of February 2019): one
- number of DLT (36 mg/m^2, 28-day cycle, as of August 2019): one
- number of DLT (40 mg/m^2, 21-day cycle, as of February 2019): One
- possible treatment related SAE (DL4 (20 mg/m^2)): Grade 3 cardiac failure congestion
- SAE related to study drug (DL 4, 21-day cycle, as of February 2019): congestive heart failure
- possible treatment related SAE (DL5 (30 mg/m^2)): Grade 2 pyrexia
- SAE related to study drug (DL 5, 30 mg/m^2, 21-day cycle, as of February 2019): pyrexia
- ALT or bilirubin elevation (DL 5A): no elevation of ALT or bilirubin
- time for AST elevation to return to Grade 1 (DL 5A): ≤ 13 days
- time for AST elevation to return to Grade 2 (DL 5A): ≤ 7 days
- finding accompanying AST elevation (DL 5A, alkaline phosphatase): Grade 1 alkaline phosphatase elevation
- dose limiting toxicity (DL 5A, cycle 1, day 8): Grade 3 AST
- bilirubin elevation (DL6): no elevation of bilirubin
- time for ALT elevation to resolve to Grade 1 (DL6): ≤ 8 days
- time for AST elevation to return to Grade 1 (DL6): ≤ 21 days
- finding accompanying AST elevation (DL6, ALT): Grade 2 ALT elevation
- finding accompanying AST elevation (DL6, alkaline phosphatase): Grade 1 alkaline phosphatase elevation
- dose limiting toxicity (DL6, cycle 1, day 8): Grade 3 AST
- Aspartate aminotransferase (AST) increased Grade 1, patients (TRAE, N = 37, May 10, 2019): 3
- Aspartate aminotransferase (AST) increased Grade 1, percent of patients (TRAE, N = 37, May 10, 2019): (8) %
- Aspartate aminotransferase (AST) increased Grade 2, patients (TRAE, N = 37, May 10, 2019): 2
- Aspartate aminotransferase (AST) increased Grade 2, percent of patients (TRAE, N = 37, May 10, 2019): (5) %
- Aspartate aminotransferase (AST) increased Grade 3, patients (TRAE, N = 37, May 10, 2019): 4
- Aspartate aminotransferase (AST) increased Grade 3, percent of patients (TRAE, N = 37, May 10, 2019): 11%
- Aspartate aminotransferase (AST) increased Total, patients (TRAE, N = 37, May 10, 2019): 9
- Aspartate aminotransferase (AST) increased Total, percent of patients (TRAE, N = 37, May 10, 2019): (24) %
- Blood alkaline phosphatase increased Grade 1, patients (TRAE, N = 37, May 10, 2019): 6
- Blood alkaline phosphatase increased Grade 1, percent of patients (TRAE, N = 37, May 10, 2019): (16) %
- Blood alkaline phosphatase increased Grade 2, patients (TRAE, N = 37, May 10, 2019): 0
- Blood alkaline phosphatase increased Grade 3, patients (TRAE, N = 37, May 10, 2019): 0
- Blood alkaline phosphatase increased Total, patients (TRAE, N = 37, May 10, 2019): 6
- Blood alkaline phosphatase increased Total, percent of patients (TRAE, N = 37, May 10, 2019): (16) %
- Decreased appetite Grade 1, patients (TRAE, N = 37, May 10, 2019): 1
- Decreased appetite Grade 1, percent of patients (TRAE, N = 37, May 10, 2019): (3) %
- Decreased appetite Grade 2, patients (TRAE, N = 37, May 10, 2019): 6
- Decreased appetite Grade 2, percent of patients (TRAE, N = 37, May 10, 2019): (16) %
- Decreased appetite Grade 3, patients (TRAE, N = 37, May 10, 2019): 0
- Decreased appetite Total, patients (TRAE, N = 37, May 10, 2019): 7
- Decreased appetite Total, percent of patients (TRAE, N = 37, May 10, 2019): (19) %
- Fatigue Grade 1, patients (TRAE, N = 37, May 10, 2019): 4
- Fatigue Grade 1, percent of patients (TRAE, N = 37, May 10, 2019): (11) %
- Fatigue Grade 2, patients (TRAE, N = 37, May 10, 2019): 7
- Fatigue Grade 2, percent of patients (TRAE, N = 37, May 10, 2019): (19) %
- Fatigue Grade 3, patients (TRAE, N = 37, May 10, 2019): 0
- Fatigue Total, patients (TRAE, N = 37, May 10, 2019): 11
- Fatigue Total, percent of patients (TRAE, N = 37, May 10, 2019): (30) %
- Gamma-glutamyltransferase (GGT) increased Grade 1, patients (TRAE, N = 37, May 10, 2019): 3
- Gamma-glutamyltransferase (GGT) increased Grade 1, percent of patients (TRAE, N = 37, May 10, 2019): (8) %
- Gamma-glutamyltransferase (GGT) increased Grade 2, patients (TRAE, N = 37, May 10, 2019): 1
- Gamma-glutamyltransferase (GGT) increased Grade 2, percent of patients (TRAE, N = 37, May 10, 2019): (3) %
- Gamma-glutamyltransferase (GGT) increased Grade 3, patients (TRAE, N = 37, May 10, 2019): 0
- Gamma-glutamyltransferase (GGT) increased Total, patients (TRAE, N = 37, May 10, 2019): 4
- Gamma-glutamyltransferase (GGT) increased Total, percent of patients (TRAE, N = 37, May 10, 2019): (11) %
- Headache Grade 1, patients (TRAE, N = 37, May 10, 2019): 5
- Headache Grade 1, percent of patients (TRAE, N = 37, May 10, 2019): (14) %
- Headache Grade 2, patients (TRAE, N = 37, May 10, 2019): 5
- Headache Grade 2, percent of patients (TRAE, N = 37, May 10, 2019): (14) %
- Headache Grade 3, patients (TRAE, N = 37, May 10, 2019): 0
- Headache Total, patients (TRAE, N = 37, May 10, 2019): 10
- Headache Total, percent of patients (TRAE, N = 37, May 10, 2019): (27) %
- Myalgia Grade 1, patients (TRAE, N = 37, May 10, 2019): 3
- Myalgia Grade 1, percent of patients (TRAE, N = 37, May 10, 2019): (8) %
- Myalgia Grade 2, patients (TRAE, N = 37, May 10, 2019): 1
- Myalgia Grade 2, percent of patients (TRAE, N = 37, May 10, 2019): (3) %
- Myalgia Grade 3, patients (TRAE, N = 37, May 10, 2019): 0
- Myalgia Total, patients (TRAE, N = 37, May 10, 2019): 4
- Myalgia Total, percent of patients (TRAE, N = 37, May 10, 2019): (11) %
- Nausea Grade 1, patients (TRAE, N = 37, May 10, 2019): 12
- Nausea Grade 1, percent of patients (TRAE, N = 37, May 10, 2019): (32) %
- Nausea Grade 2, patients (TRAE, N = 37, May 10, 2019): 2
- Nausea Grade 2, percent of patients (TRAE, N = 37, May 10, 2019): (5) %
- Nausea Grade 3, patients (TRAE, N = 37, May 10, 2019): 0
- Nausea Total, patients (TRAE, N = 37, May 10, 2019): 14
- Nausea Total, percent of patients (TRAE, N = 37, May 10, 2019): (38) %
- Pyrexia Grade 1, patients (TRAE, N = 37, May 10, 2019): 3
- Pyrexia Grade 1, percent of patients (TRAE, N = 37, May 10, 2019): (8) %
- Pyrexia Grade 2, patients (TRAE, N = 37, May 10, 2019): 1
- Pyrexia Grade 2, percent of patients (TRAE, N = 37, May 10, 2019): (3) %
- Pyrexia Grade 3, patients (TRAE, N = 37, May 10, 2019): 0
- Pyrexia Total, patients (TRAE, N = 37, May 10, 2019): 4
- Pyrexia Total, percent of patients (TRAE, N = 37, May 10, 2019): (10) %
- Vomiting Grade 1, patients (TRAE, N = 37, May 10, 2019): 4
- Vomiting Grade 1, percent of patients (TRAE, N = 37, May 10, 2019): (11) %
- Vomiting Grade 2, patients (TRAE, N = 37, May 10, 2019): 1
- Vomiting Grade 2, percent of patients (TRAE, N = 37, May 10, 2019): (3) %
- Vomiting Grade 3, patients (TRAE, N = 37, May 10, 2019): 0
- Vomiting Total, patients (TRAE, N = 37, May 10, 2019): 5
- Vomiting Total, percent of patients (TRAE, N = 37, May 10, 2019): (14) %
- grade of treatment-related adverse events (TRAEs) (as of February 2019): Grade 1 or 2
- most common TRAEs (as of February 2019): anemia, arthralgias, fatigue, vomiting, anorexia, AST increase, diarrhea, dyspnea (unrelated or unlikely related), hypoalbuminema (unrelated or unlikely related), hypoxia (unrelated), headache, nausea, proteinuria and vomiting
- number of SAEs related to study drug (as of February 2019): Two
- Grade 4 or 5 TRAE (as of May 10, 2019): no Grade 4 or 5 TRAE
- grade of adverse events (as of May 10, 2019): most adverse events being Grade 1 or 2
- number of SAEs unrelated or unlikely related to treatment (as of May 10, 2019): Seventeen
- number of possible treatment related SAEs (as of May 10, 2019): Two
- patients with SAEs unrelated or unlikely related to treatment (as of May 10, 2019): 11
- tolerability (as of May 10, 2019): well tolerated
- toxicities often associated with microtubule-targeting agents or ADCs (neutropenia, ocular toxicities, peripheral neuropathy) (as of May 10, 2019): Low rate
- number of dose limiting toxicities (at DL 5A (30 mg/m^2) and DL 6 (40 mg/m^2)): Two
- MTD / RP2D (conclusions): Neither MTD nor RP2D has been identified
- tolerability (maximum doses administered (40 mg/m^2)): well tolerated
- tolerability (up to the 30 mg/m^2 or 36 mg/m^2 or 43 mg/m^2 dose level): well-tolerated
